B1: His-tagged rat dynamin 2-WT (enzyme, UniProt P39052 1-870, looked up)
chain: MGNRGMEELIPLVNKLQDAFSSIGQSCHLDLPQIAVVGGQSAGKSSVLENFVGRDFLPRGSGIVTRRPLILQLIFSKTEYAEFLHCKSKKFTDFDEVRQEIEAETDRVTGTNKGISPVPINLRVYSPHVLNLTLIDLPGITKVPVGDQPPDIEYQIKDMILQFISRESSLILAVTPANMDLANSDALKLAKEVDPQGLRTIGVITKLDLMDEGTDARDVLENKLLPLRRGYIGVVNRSQKDIEGRKDIRAALAAERKFFLSHPAYRHMADRMGTPHLQKTLNQQLTNHIRESLPTLRSKLQSQLLSLEKEVEEYKNFRPDDPTRKTKALLQMVQQFGVDFEKRIEGSGDQVDTLELSGGARINRIFHERFPFELVKMEFDEKDLRREISYAIKNIHGVRTGLFTPDLAFEAIVKKQVVKLKEPCLKCVDLVIQELISTVRQCTSKLSSYPRLREETERIVTTYIREREGRTKDQILLLIDIEQSYINTNHEDFIGFANAQQRSTQLNKKRAIPNQGEILVIRRGWLTINNISLMKGGSKEYWFVLTAESLSWYKDEEEKEKKYMLPLDNLKIRDVEKGFMSNKHVFAIFNTEQRNVYKDLRQIELACDSQEDVDSWKASFLRAGVYPEKDQAENEDGAQENTFSMDPQLERQVETIRNLVDSYVAIINKSIRDLMPKTIMHLMINNTKAFIHHELLAYLYSSADQSSLMEESAEQAQRRDDMLRMYHALKEALNIIGDISTSTVSTPVPPPVDDTWLQNTSSHSPTPQRRPVSSVHPPGRPPAVRGPTPGPPLIPMPVGATSSFSAPPIPSRPGPQNVFANNDPFSAPPQIPSRPARIPPGIPPGVPSRRAPAAPSRPTIIRPAEPSLLD
B2: His-tagged rat dynamin 2-K562E (enzyme, UniProt P39052 1-870, looked up)
chain: MGNRGMEELIPLVNKLQDAFSSIGQSCHLDLPQIAVVGGQSAGKSSVLENFVGRDFLPRGSGIVTRRPLILQLIFSKTEYAEFLHCKSKKFTDFDEVRQEIEAETDRVTGTNKGISPVPINLRVYSPHVLNLTLIDLPGITKVPVGDQPPDIEYQIKDMILQFISRESSLILAVTPANMDLANSDALKLAKEVDPQGLRTIGVITKLDLMDEGTDARDVLENKLLPLRRGYIGVVNRSQKDIEGRKDIRAALAAERKFFLSHPAYRHMADRMGTPHLQKTLNQQLTNHIRESLPTLRSKLQSQLLSLEKEVEEYKNFRPDDPTRKTKALLQMVQQFGVDFEKRIEGSGDQVDTLELSGGARINRIFHERFPFELVKMEFDEKDLRREISYAIKNIHGVRTGLFTPDLAFEAIVKKQVVKLKEPCLKCVDLVIQELISTVRQCTSKLSSYPRLREETERIVTTYIREREGRTKDQILLLIDIEQSYINTNHEDFIGFANAQQRSTQLNKKRAIPNQGEILVIRRGWLTINNISLMKGGSKEYWFVLTAESLSWYKDEEEKEKEYMLPLDNLKIRDVEKGFMSNKHVFAIFNTEQRNVYKDLRQIELACDSQEDVDSWKASFLRAGVYPEKDQAENEDGAQENTFSMDPQLERQVETIRNLVDSYVAIINKSIRDLMPKTIMHLMINNTKAFIHHELLAYLYSSADQSSLMEESAEQAQRRDDMLRMYHALKEALNIIGDISTSTVSTPVPPPVDDTWLQNTSSHSPTPQRRPVSSVHPPGRPPAVRGPTPGPPLIPMPVGATSSFSAPPIPSRPGPQNVFANNDPFSAPPQIPSRPARIPPGIPPGVPSRRAPAAPSRPTIIRPAEPSLLD

Tests used:
[1] = molecular target: Non-muscle actin (actin filaments) (UniProt P60709 1-375); experiment: cell-based or functional assay
[2] = molecular target: the molecule itself; experiment: cell-based or functional assay

Binder	release of free phosphate (GTPase activity) by dynamin 2 (1.5 uM) with actin filaments (1 uM), 100 mM KCl, relative to that without actin [1]	GTPase activity under low ionic strength buffer, relative to dynamin 2-WT [2]
B1	6 fold	–
B2	4 fold	~0.33 of dynamin 2-WT

Source: PMC9127447, “The Lipid-Binding Defective Dynamin 2 Mutant in Charcot-Marie-Tooth Disease Impairs Proper Actin Bundling and Actin Organization in Glomerular Podocytes” (Frontiers in Cell and Developmental Biology, 2022)
